The target in the assay is C-RANKL protein (mouse RANKL fragment with N-terminal cysteine-containing linker GPGCGGG and hexahistidine tag) (mouse) (UniProt O35235). The assay is described as follows: ELISA on plates coated with C-RANKL 10 ug/ml, serial dilutions of RANK-Fc, anti-Fc-HRP detection.
UniProt O35235, sequence (O35235 other isoform, or with tags, fused parts or gaps limits assumed, form in doubt): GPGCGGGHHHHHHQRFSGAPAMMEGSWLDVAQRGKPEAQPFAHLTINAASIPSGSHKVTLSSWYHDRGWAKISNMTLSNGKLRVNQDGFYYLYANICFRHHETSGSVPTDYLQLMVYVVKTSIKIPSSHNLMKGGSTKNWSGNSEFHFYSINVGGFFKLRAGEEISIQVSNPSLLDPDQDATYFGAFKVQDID

With purified RANK-Fc fusion protein, the EC50 (in general, the concentration that produces a half-maximal response) lay in the range of 1 to 3 nM.
